Results from article PMC11303214.

Tests used:
Assay in all cases: SEC; Superdex200 column, PBS buffer pH 7.4, after nickel affinity chromatography
[1] = molecular target: SsA2 (R-1b variant with the A55C-L188C disulfide) (respiratory syncytial virus (RSV) | bacteriophage T4) (UniProt P03420)
[2] = molecular target: SsB1 (R-1b variant with the S443C-S466C disulfide) (respiratory syncytial virus (RSV) | bacteriophage T4) (UniProt P03420)
[3] = molecular target: SsA1 (R-1b variant with the V157C-N183C disulfide) (respiratory syncytial virus (RSV) | bacteriophage T4) (UniProt P03420)

**Q.** “SsA2 (R-1b variant with the A55C-L188C disulfide) (from UniProt P03420 26-105; P03420 137-513)” was tested. Which stoichiometry N [1] did it give?
**A.** The stoichiometry N was 3.

**Q.** With “SsB1 (R-1b variant with the S443C-S466C disulfide) (from UniProt P03420 26-105; P03420 137-513)” as the substance, how does the stoichiometry N [2] read?
**A.** The stoichiometry N was 3.

**Q.** With “SsA1 (R-1b variant with the V157C-N183C disulfide) (from UniProt P03420 26-105; P03420 137-513)” as the substance, how does the stoichiometry N [3] read?
**A.** Its stoichiometry N is 3.
